The term Kd denotes the equilibrium constant for the complex coming apart. A higher Kd goes with lower affinity.

We go through 27 molecules from PMC10786891, “Massively parallel profiling of RNA-targeting CRISPR-Cas13d”.

T1: EsCas13d, nuclease-dead (Eubacterium siraeum, UniProt B0MS50, R295A;H300A;R849A;H854A)
T1 sequence: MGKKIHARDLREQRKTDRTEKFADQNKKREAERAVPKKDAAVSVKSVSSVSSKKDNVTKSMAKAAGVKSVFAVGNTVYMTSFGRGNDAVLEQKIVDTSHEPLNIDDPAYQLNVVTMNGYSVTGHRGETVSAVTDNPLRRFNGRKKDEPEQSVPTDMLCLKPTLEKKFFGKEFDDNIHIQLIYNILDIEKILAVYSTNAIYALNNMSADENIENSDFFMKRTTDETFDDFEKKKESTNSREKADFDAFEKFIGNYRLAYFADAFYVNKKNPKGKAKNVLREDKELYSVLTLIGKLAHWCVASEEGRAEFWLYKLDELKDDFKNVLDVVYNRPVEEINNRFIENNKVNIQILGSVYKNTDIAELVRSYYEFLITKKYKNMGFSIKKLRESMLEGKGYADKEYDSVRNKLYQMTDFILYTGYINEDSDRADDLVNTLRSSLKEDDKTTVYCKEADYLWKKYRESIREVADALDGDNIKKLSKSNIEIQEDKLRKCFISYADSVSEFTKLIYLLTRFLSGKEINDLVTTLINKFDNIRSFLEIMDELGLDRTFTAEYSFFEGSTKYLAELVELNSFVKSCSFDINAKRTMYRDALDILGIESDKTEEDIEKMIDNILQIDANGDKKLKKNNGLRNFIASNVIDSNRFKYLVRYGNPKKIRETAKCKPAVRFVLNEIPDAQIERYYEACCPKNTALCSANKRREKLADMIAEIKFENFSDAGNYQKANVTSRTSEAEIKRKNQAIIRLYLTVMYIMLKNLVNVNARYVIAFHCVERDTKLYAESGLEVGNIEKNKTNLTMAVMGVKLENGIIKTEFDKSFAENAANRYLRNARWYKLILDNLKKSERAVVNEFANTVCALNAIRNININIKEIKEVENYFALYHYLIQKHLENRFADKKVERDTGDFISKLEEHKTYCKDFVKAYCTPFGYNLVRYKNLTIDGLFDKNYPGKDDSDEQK

B1: target 1 C2G,G15C (mixed)
RNA 1: CACCCGUGCAAAAAUGCAGGGGUCUAAAACUGAGCGGAUAACCUCUCUAUGG
RNA 2: GGGAAUGGAUCCACAUCUACGAAUUCGUACCAUAGACAGGUUAUCCGCUGACCGAGAUCGGAAGAGCACACGU
B2: target 1 A1U,A14G (mixed)
RNA 1: CACCCGUGCAAAAAUGCAGGGGUCUAAAACUGAGCGGAUAACCUCUCUAUGG
RNA 2: GGGAAUGGAUCCACAUCUACGAAUUCGUACCAUAGAGGGGUUAUCCGCUCUCCGAGAUCGGAAGAGCACACGU
B3: target 2 MT 5'PFS GCG 3'PFS CCG (mixed)
RNA 1: CACCCGUGCAAAAUUGCAGGGGUCUAAAACCUUCUCCAAAUUGUUUCAUCCU
RNA 2: GGGAAUGGAUCCACAUCUACGAAUUCGCGAGGAUGAAACAAUUUGGAGAAGCCGAGAUCGGAAGAGCACACGU
B4: target 2 MT 5'PFS AGA 3'PFS CGA (mixed)
RNA 1: CACCCGUGCAAAAUUGCAGGGGUCUAAAACCUUCUCCAAAUUGUUUCAUCCU
RNA 2: GGGAAUGGAUCCACAUCUACGAAUUCAGAAGGAUGAAACAAUUUGGAGAAGCGAAGAUCGGAAGAGCACACGU
B5: target 2 MT 5'PFS CUC 3'PFS UCU (mixed)
RNA 1: CACCCGUGCAAAAUUGCAGGGGUCUAAAACCUUCUCCAAAUUGUUUCAUCCU
RNA 2: GGGAAUGGAUCCACAUCUACGAAUUCCUCAGGAUGAAACAAUUUGGAGAAGUCUAGAUCGGAAGAGCACACGU
B6: target 2 MT 5'PFS AGU 3'PFS CGU (mixed)
RNA 1: CACCCGUGCAAAAUUGCAGGGGUCUAAAACCUUCUCCAAAUUGUUUCAUCCU
RNA 2: GGGAAUGGAUCCACAUCUACGAAUUCAGUAGGAUGAAACAAUUUGGAGAAGCGUAGAUCGGAAGAGCACACGU
B7: target 2 MT 5'PFS ACA 3'PFS UGU (mixed)
RNA 1: CACCCGUGCAAAAUUGCAGGGGUCUAAAACCUUCUCCAAAUUGUUUCAUCCU
RNA 2: GGGAAUGGAUCCACAUCUACGAAUUCACAAGGAUGAAACAAUUUGGAGAAGUGUAGAUCGGAAGAGCACACGU
B8: target 2 MT 5'PFS CAA 3'PFS AUA (mixed)
RNA 1: CACCCGUGCAAAAUUGCAGGGGUCUAAAACCUUCUCCAAAUUGUUUCAUCCU
RNA 2: GGGAAUGGAUCCACAUCUACGAAUUCCAAAGGAUGAAACAAUUUGGAGAAGAUAAGAUCGGAAGAGCACACGU
B9: target 2 MT 5'PFS AGC 3'PFS AAG (mixed)
RNA 1: CACCCGUGCAAAAUUGCAGGGGUCUAAAACCUUCUCCAAAUUGUUUCAUCCU
RNA 2: GGGAAUGGAUCCACAUCUACGAAUUCAGCAGGAUGAAACAAUUUGGAGAAGAAGAGAUCGGAAGAGCACACGU
B10: target 2 MT 5'PFS GUU 3'PFS AAU (mixed)
RNA 1: CACCCGUGCAAAAUUGCAGGGGUCUAAAACCUUCUCCAAAUUGUUUCAUCCU
RNA 2: GGGAAUGGAUCCACAUCUACGAAUUCGUUAGGAUGAAACAAUUUGGAGAAGAAUAGAUCGGAAGAGCACACGU
B11: target 2 MT 5'PFS AAC 3'PFS AAU (mixed)
RNA 1: CACCCGUGCAAAAUUGCAGGGGUCUAAAACCUUCUCCAAAUUGUUUCAUCCU
RNA 2: GGGAAUGGAUCCACAUCUACGAAUUCAACAGGAUGAAACAAUUUGGAGAAGAAUAGAUCGGAAGAGCACACGU
B12: target 2 MT 5'PFS AGC 3'PFS AAC (mixed)
RNA 1: CACCCGUGCAAAAUUGCAGGGGUCUAAAACCUUCUCCAAAUUGUUUCAUCCU
RNA 2: GGGAAUGGAUCCACAUCUACGAAUUCAGCAGGAUGAAACAAUUUGGAGAAGAACAGAUCGGAAGAGCACACGU
B13: target 2 MT 5'PFS ACA 3'PFS UGA (mixed)
RNA 1: CACCCGUGCAAAAUUGCAGGGGUCUAAAACCUUCUCCAAAUUGUUUCAUCCU
RNA 2: GGGAAUGGAUCCACAUCUACGAAUUCACAAGGAUGAAACAAUUUGGAGAAGUGAAGAUCGGAAGAGCACACGU
B14: target 2 MT 5'PFS GUU 3'PFS AAC (mixed)
RNA 1: CACCCGUGCAAAAUUGCAGGGGUCUAAAACCUUCUCCAAAUUGUUUCAUCCU
RNA 2: GGGAAUGGAUCCACAUCUACGAAUUCGUUAGGAUGAAACAAUUUGGAGAAGAACAGAUCGGAAGAGCACACGU
B15: target 2 MT 5'PFS AGC 3'PFS AAU (mixed)
RNA 1: CACCCGUGCAAAAUUGCAGGGGUCUAAAACCUUCUCCAAAUUGUUUCAUCCU
RNA 2: GGGAAUGGAUCCACAUCUACGAAUUCAGCAGGAUGAAACAAUUUGGAGAAGAAUAGAUCGGAAGAGCACACGU
B16: target 2 MT 5'PFS AAU 3'PFS AGU (mixed)
RNA 1: CACCCGUGCAAAAUUGCAGGGGUCUAAAACCUUCUCCAAAUUGUUUCAUCCU
RNA 2: GGGAAUGGAUCCACAUCUACGAAUUCAAUAGGAUGAAACAAUUUGGAGAAGAGUAGAUCGGAAGAGCACACGU
B17: target 2 MT 5'PFS AGC 3'PFS UGU (mixed)
RNA 1: CACCCGUGCAAAAUUGCAGGGGUCUAAAACCUUCUCCAAAUUGUUUCAUCCU
RNA 2: GGGAAUGGAUCCACAUCUACGAAUUCAGCAGGAUGAAACAAUUUGGAGAAGUGUAGAUCGGAAGAGCACACGU
B18: target 2 MT 5'PFS CUC 3'PFS UCC (mixed)
RNA 1: CACCCGUGCAAAAUUGCAGGGGUCUAAAACCUUCUCCAAAUUGUUUCAUCCU
RNA 2: GGGAAUGGAUCCACAUCUACGAAUUCCUCAGGAUGAAACAAUUUGGAGAAGUCCAGAUCGGAAGAGCACACGU
B19: target 2 MT 5'PFS CAA 3'PFS AUC (mixed)
RNA 1: CACCCGUGCAAAAUUGCAGGGGUCUAAAACCUUCUCCAAAUUGUUUCAUCCU
RNA 2: GGGAAUGGAUCCACAUCUACGAAUUCCAAAGGAUGAAACAAUUUGGAGAAGAUCAGAUCGGAAGAGCACACGU
B20: target 2 MT 5'PFS AAU 3'PFS AGA (mixed)
RNA 1: CACCCGUGCAAAAUUGCAGGGGUCUAAAACCUUCUCCAAAUUGUUUCAUCCU
RNA 2: GGGAAUGGAUCCACAUCUACGAAUUCAAUAGGAUGAAACAAUUUGGAGAAGAGAAGAUCGGAAGAGCACACGU
B21: target 2 MT 5'PFS AGU 3'PFS CGC (mixed)
RNA 1: CACCCGUGCAAAAUUGCAGGGGUCUAAAACCUUCUCCAAAUUGUUUCAUCCU
RNA 2: GGGAAUGGAUCCACAUCUACGAAUUCAGUAGGAUGAAACAAUUUGGAGAAGCGCAGAUCGGAAGAGCACACGU
B22: target 2 MT 5'PFS GUA 3'PFS CAU (mixed)
RNA 1: CACCCGUGCAAAAUUGCAGGGGUCUAAAACCUUCUCCAAAUUGUUUCAUCCU
RNA 2: GGGAAUGGAUCCACAUCUACGAAUUCGUAAGGAUGAAACAAUUUGGAGAAGCAUAGAUCGGAAGAGCACACGU
B23: target 2 MT 5'PFS AGA 3'PFS CGG (mixed)
RNA 1: CACCCGUGCAAAAUUGCAGGGGUCUAAAACCUUCUCCAAAUUGUUUCAUCCU
RNA 2: GGGAAUGGAUCCACAUCUACGAAUUCAGAAGGAUGAAACAAUUUGGAGAAGCGGAGAUCGGAAGAGCACACGU
B24: target 2 MT 5'PFS AGC 3'PFS AAA (mixed)
RNA 1: CACCCGUGCAAAAUUGCAGGGGUCUAAAACCUUCUCCAAAUUGUUUCAUCCU
RNA 2: GGGAAUGGAUCCACAUCUACGAAUUCAGCAGGAUGAAACAAUUUGGAGAAGAAAAGAUCGGAAGAGCACACGU
B25: target 2 MT 5'PFS CUC 3'PFS UCA (mixed)
RNA 1: CACCCGUGCAAAAUUGCAGGGGUCUAAAACCUUCUCCAAAUUGUUUCAUCCU
RNA 2: GGGAAUGGAUCCACAUCUACGAAUUCCUCAGGAUGAAACAAUUUGGAGAAGUCAAGAUCGGAAGAGCACACGU
B26: target 2 MT 5'PFS CGG 3'PFS UCA (mixed)
RNA 1: CACCCGUGCAAAAUUGCAGGGGUCUAAAACCUUCUCCAAAUUGUUUCAUCCU
RNA 2: GGGAAUGGAUCCACAUCUACGAAUUCCGGAGGAUGAAACAAUUUGGAGAAGUCAAGAUCGGAAGAGCACACGU
B27: target 2 MT 5'PFS AAG 3'PFS UCG (mixed)
RNA 1: CACCCGUGCAAAAUUGCAGGGGUCUAAAACCUUCUCCAAAUUGUUUCAUCCU
RNA 2: GGGAAUGGAUCCACAUCUACGAAUUCAAGAGGAUGAAACAAUUUGGAGAAGUCGAGAUCGGAAGAGCACACGU

The target in the data set is T1, EsCas13d, nuclease-dead. Description: crRNA (strand 1, pre-loaded); Mg2+; 40 mM Tris-HCl pH 7.5, 150 mM NaCl, 6 mM MgCl2, 1 mM DTT, 0.1% Tween-20, 0.2 mg/ml BSA; 25 C; 10 min per concentration, then washed. The settings on record: tags: His6-TwinStrep-SUMO cleaved; N-terminal SNAP kept (SNAP-Surface 488); label: 3' end held by stalled T7 RNA polymerase.
Molecule B1 yielded a Kd of 35.8 ± 3.1 nM.

Consider B2, for which the affinity, expressed as Kd, was 17 ± 1.3 nM.

Consider B3, for which the Kd is 12.2 ± 1 nM.

Molecule B4 registered a Kd of 5.5 ± 0.8 nM.

In turn, B5 yielded a dissociation constant Kd of 5 ± 0.6 nM.

Molecule B6 yielded a Kd of 13.9 ± 2.3 nM.

B7 displayed a Kd of 9.6 ± 2.5 nM.

B8 gave a Kd of 5.5 ± 1.8 nM.

In the case of B9, binding was characterised by a dissociation constant (Kd) of 9.2 ± 2 nM.

For B10, the affinity, expressed as Kd, was 7.5 ± 0.6 nM.

Molecule B11 returned a Kd of 6.1 ± 1.5 nM.

In turn, B12 returned a Kd of 13 ± 4 nM.

The molecule B13 displayed a Kd of 7 ± 1.5 nM.

Molecule B14 displayed a Kd of 11.9 ± 1.3 nM.

B15 displayed a Kd of 7.1 ± 1.4 nM.

Regarding B16, binding was put at a Kd of 4.9 ± 0.5 nM.

In turn, B17 gave a Kd of 12.7 ± 1.8 nM. Against the preceding molecule, the Kd is about 2.6-fold higher.

On to B18, for which the Kd is 5.3 ± 0.9 nM.

Regarding B19, binding was characterised by a dissociation constant (Kd) of 2.4 ± 1.1 nM. Against the preceding molecule, the Kd is about 2.2-fold lower.

With B20, the Kd turned out to be 3.3 ± 0.5 nM.

Take B21: the affinity, expressed as Kd, was 14.6 ± 1.9 nM. This Kd lies about 4.4-fold higher than the previous one.

Regarding B22, the dissociation constant Kd was determined as 6.3 ± 0.5 nM.

B23: binding was characterised by a dissociation constant (Kd) of 5.2 ± 0.6 nM.

Regarding B24, the dissociation constant (Kd) amounted to 13 ± 4 nM.

In turn, B25 yielded a Kd of 3.3 ± 0.5 nM.

B26 registered a Kd of 11 ± 5 nM.

Molecule B27 yielded a Kd of 4.4 ± 0.7 nM.
